Data reported in patent publication US7521540B2, “CYR61 compositions and methods” (Munin Corporation, priority 1996, dated 2009).

Key:
[1] = tested on: 1064SK primary human foreskin fibroblasts; experiment: Fibroblast adhesion assay (methylene blue, A620); type: cell-based; settings: for inhibition by anti-α6 antibody of binding mediated by the coated protein: anti-α6 20 μg/ml; for support of 1064SK fibroblast adhesion: protein coated on wells
Method: The ability of Cyr61 to mediate cell adhesion in normal fibroblasts was investigated. Microtiter wells were coated with purified recombinant Cyr61 protein, and 1064SK primary human foreskin fibroblasts were allowed to adhere under serum-free conditions. […] 50 μl cell suspensions were plated on microtiter wells coated with varying concentrations (0.5-5.0 μg/ml) of Cyr61 protein. After incubation at 37° C. for 30 minutes, adherent cells were fixed and stained with methylene blue.
In another experiment, microtiter wells were coated with either BSA, Cyr61 (2 μg/ml), or vitronectin (VN; 0.5 μg/ml) and blocked with affinity-purified anti-Cyr61 antibodies for one hour at 37° C. before 1064SK cells were plated.
The effects of divalent cations in cell adhesion to Cyr61 was also investigated. […] Data are means from triplicate determinations. […] Inhibition by Ca^2+ is characteristic of adhesion through some members of the β1 family of integrins, including receptors that bind type I collagen, laminin, and vitronectin (integrins α2β1, α6β1, and αVβ1) in fibroblasts, as well as the lymphocyte-specific integrin αLβ2.
The effects of RGD peptides on Cyr61-mediated fibroblast binding was tested by plating cells in wells coated with Cyr61 (2 μg/ml). Type I collagen (2 μg/ml) or vitronectin (0.5 μg/ml), 2 mM GRGDSP or GRGESP peptide was then added.
Cells were also pre-incubated with 40 μg/ml monoclonal antibodies against the integrin α5 or the integrin αV subunits at room temperature for 30 minutes, then plated on wells coated with Cyr61 (2 μg/ml), vitronectin (0.5 μg/ml) or fibronectin (FN, 1 μg/ml). […] The data are means, representative of three experiments.
The 1064 SK cells were also analyzed using the monoclonal antibody JBIA, which binds the β1 integrin subunit. Cells were pre-incubated with the antibody (50 μg/ml) before plating on microtiter wells coated with Cyr61 (2 μg/ml), Type I collagen (2 μg/ml), or vitronectin (0.5 μg/ml). […] Data are means, representative of three experiments.
To identify the specific β1 integrin that mediates fibroblast adhesion to Cyr61, the inhibitory effects of function-blocking monoclonal antibodies were tested against various integrin α subunits. […] The data are means, representative of at least three experiments.

[2] = Heparin binding assay (salt elution from heparin-Sepharose/agarose)
[3] = tested on: NIH 3T3 fibroblasts; experiment: Thymidine incorporation (mitogen potentiation), NIH 3T3; type: cell-based, mouse; settings: bFGF 15 ng/ml or PDGF-BB 30 ng/ml
Method: More specifically, NIH 3T3 fibroblast cells were plated on 24-well plates at 3×10^4 cells/well and grown in DMEM with 10% fetal bovine serum (Intergen Co., Purchase, N.Y.) for 3-4 days and incubated with medium containing 0.2% FBS for the following 48 hours. The following compounds, at the parenthetically noted final concentrations, were then added to the plated cells in fresh DMEM containing 0.2% fbs and [^3H]-thymidine (1 μCi/ml final concentration; ICN Biomedicals, Inc., Costa Mesa, Calif.): bFGF (15 ng/ml), PDGF-BB (30 ng/ml), and murine Cyr61 (0.5-5 μg/ml). These compounds were added to individual plates according to the following pattern: 1) no supplementation; 2) murine Cyr61; 3) bFGF; 4) murine Cyr61 and bFGF; 5) PDGF-BB; and 6) murine Cyr61 and PDGF. After 18-20 hours of incubation, cells were washed with PBS and fixed with 10% trichloroacetic acid. DNA was dissolved in 0.1 N NaOH and thymidine incorporation was determined. […] Without any supplements, 3T3 cells incorporated approximately 1.8×10^4 cpm of [^3H]-thymidine, in the presence or absence of Cyr61. Cells exposed to bFGF alone incorporated about 1.2×10^5 cpm; cells contacting bFGF and murine Cyr61 incorporated 2×10^5 cpm. Cells receiving PDGF-BB incorporated about 1.2×10^5 cpm; and cells exposed to PDGF-BB and murine Cyr61 incorporated approximately 2.4×10^5 cpm.
DNA synthesis for HUVE cells and NIH 3T3 fibroblasts was measured by thymidine incorporation as described previously (Kireeva et al., [1996]) with minor modifications. HUVE cells were grown in 24-well plates to a subconfluent state, serum-starved for 24 hours and treated with F12K medium containing 10% fetal bovine serum (FBS), 1 μCi/ml [^3H]-thymidine and 10 ng/ml basic Fibroblast Growth Factor (bFGF) (Gibco-BRL, Inc.) with various concentrations of Cyr61 and Fisp12 as indicated. NIH 3T3 fibroblasts were grown to subconlfluence, serum-starved for 48 hours, and treated with Minimal Essential Medium (MEM) containing 0.5% FBS, 1 μCi/ml [^3H]-thymidine, bFGF and various concentrations of Cyr61 or Fisp12. Thymidine incorporation into the trichloroacetic acid-insoluble fraction was determined after 24 hour incubation. Logarithmically grown mink lung epithelial cells (Mv1lu, CCL64) were treated with various concentrations of TGF-β1 (Gibco-BRL) and 2 μg/ml of Cyr61 or Fisp12 for 18 hours; [^3H]-thymidine was then added to 1 μCi/ml for 2 hours. Thymidine incorporation was determnined as described above.

[4] = tested on: 1064SK human skin fibroblasts; experiment: Human skin fibroblast migration; type: cell-based; settings: 1064SK cells
[5] = tested on: primary human foreskin fibroblasts; experiment: Cyr61-regulated gene expression (multi-gene blot, Northern); type: cell-based
Method: Purified, soluble, recombinant Cyr61 protein was added to cultures of primary human foreskin fibroblasts for 24 hours. From these cells, mRNA was isolated for preparation of probes to hybridize to a multi-gene blot (Clontech Atlas Human Array 1.2 cat no. 7850-1) containing about 650 genes. The levels of expression of these genes in Cyr61-treated cells were compared to that of control cells. […] These findings have been confirmed by Northern blot analysis showing increases or decreases of the mRNAs in question in Cyr61-treated cells. A time course of expression changes has been established. In particular, by 6 hours after its addition, Cyr61 has induced expression of VEGF-A mRNA and the induction is still evident at 12 and 24 hours post-addition. Also at 12 and 24 hours post-addition, Cyr61 has induced expression of VEGF-A polypeptide. With respect to VEGF-C, induction of mRNA is clearly evident 12 hours after addition of Cyr61 and the induction persists at least through 24 hours post-addition. Cyr61 is expected to induce the expression of VEGF-C polypeptide with similar kinetics.

B1: H2: Cyr61 variant, heparin-binding motif at residues 305-310 replaced with alanine (protein)
chain: TCPAACHCPLEAPKCAPGVGLVRDGCGCCKVCAKQLNEDCSKTQPCDHTKGLECNFGASSTALKGICRAQSEGRPCEYNSRIYQNGESFQPNCKHQCTCIDGAVGCIPLCPQELSLPNLGCPNPRLVKVSGQCCEEWVCDEDSIKDSLDDQDDLLGLDASEVELTRNNELIAIGKGSSLKRLPVFGTEPRVLFNPLHAHGQKCIVQTTSWSQCSKSCGTGISTRVTNDNPECRLVKETRICEVRPCGQPVYSSLKKGKKCSKTKKSPEPVRFTYAGCSSVVAAYAPYCGSCVDGRCCTPLQTRTVKMRFRCEDGEMFSKNVMMIQSCKCNYNCPHPNEASFRLYSLFNDIHKFRD
inhibition by anti-α6 antibody of binding mediated by the coated protein [1]: 70%
support of 1064SK fibroblast adhesion [1]: able to support fibroblast adhesion
heparin binding [2]: somewhat decreased heparin-binding affinities

B2: PDGF-BB: Platelet-Derived Growth Factor, BB isoform (protein, UniProt P01127 82-190, looked up)
Platelet-derived growth …: SLGSLTIAEPAMIAECKTRTEVFEISRRLIDRTNANFLVWPPCVEVQRCSGCCNNRNVQCRPTQVQLRPVQVRKIEIVRKKPIFKKATVTLEDHLACKCETVAAARPVT
modifications: BB homodimer
notes: Platelet-Derived Growth Factor, BB isoform
[3H]-thymidine incorporation, growth factor alone [3]: about 1.2×10^5 cpm

B3: H1: Cyr61 variant, lysine/arginine of heparin-binding motif at residues 280-290 replaced with alanine (protein)
chain: TCPAACHCPLEAPKCAPGVGLVRDGCGCCKVCAKQLNEDCSKTQPCDHTKGLECNFGASSTALKGICRAQSEGRPCEYNSRIYQNGESFQPNCKHQCTCIDGAVGCIPLCPQELSLPNLGCPNPRLVKVSGQCCEEWVCDEDSIKDSLDDQDDLLGLDASEVELTRNNELIAIGKGSSLKRLPVFGTEPRVLFNPLHAHGQKCIVQTTSWSQCSKSCGTGISTRVTNDNPECRLVKETRICEVRPCGQPVYSSLKKAGAACSATAKPEPVRFTYAGCSSVKKYRPKYCGSCVDGRCCTPLQTRTVKMRFRCEDGEMFSKNVMMIQSCKCNYNCPHPNEASFRLYSLFNDIHKFRD
inhibition by anti-α6 antibody of binding mediated by the coated protein [1]: 69%
support of 1064SK fibroblast adhesion [1]: able to support fibroblast adhesion
heparin binding [2]: somewhat decreased heparin-binding affinities

B4: Cyr61 NT: Human Cyr61 fragment with domains I, II and III, lacking heparan binding domain IV (protein)
chain: TCPAACHCPLEAPKCAPGVGLVRDGCGCCKVCAKQLNEDCSKTQPCDHTKGLECNFGASSTALKGICRAQSEGRPCEYNSRIYQNGESFQPNCQHQCTCIDGAVGCIPLCPQELSLPNLGCPNPRLVKVTGQCCEEWVCDEDSIKDPMEDQDGLLGKELGFDASEVELTRNNELIAVGKGRSLKRLPVFGMEPRILYNPLQGQKCIVQTTSWSQCSKTCGTGISTRVTNDNPECRLVKETRICEVRPCGQPVYSSLK
migration of human fibroblasts [4]: did support fibroblast migration
migration of human fibroblasts ([4]; listed as human Cyr61 NT): induced 1064SK cell migration
support of 1064SK fibroblast adhesion [1]: did not support fibroblast adhesion
induction of VEGF, MMP1, MMP3 etc. [5]: do not induce the expression of the above-referenced genes

B5: decorin: Decorin from Sigma (protein, UniProt P21793 31-360, looked up)
Decorin: DEASGIGPEEHFPEVPEIEPMGPVCPFRCQCHLRVVQCSDLGLEKVPKDLPPDTALLDLQNNKITEIKDGDFKNLKNLHTLILINNKISKISPGAFAPLVKLERLYLSKNQLKELPEKMPKTLQELRVHENEITKVRKSVFNGLNQMIVVELGTNPLKSSGIENGAFQGMKKLSYIRIADTNITTIPQGLPPSLTELHLDGNKITKVDAASLKGLNNLAKLGLSFNSISAVDNGSLANTPHLRELHLNNNKLVKVPGGLADHKYIQVVYLHNNNISAIGSNDFCPPGYNTKKASYSGVSLFSNPVQYWEIQPSTFRCVYVRAAVQLGNYK
concentration that inhibited cell adhesion to Cyr61 ([1]; in cell suspension): 10 µg/mL

B6: heparatinase: Enzyme used to pretreat cells (heparinase I, 2 U/ml) (protein, UniProt Q05819 22-384, looked up)
Heparin lyase I: QQKKSGNIPYRVNVQADSAKQKAIIDNKWVAVGINKPYALQYDDKLRFNGKPSYRFELKAEDNSLEGYAAGETKGRTELSYSYATTNDFKKFPPSVYQNAQKLKTVYHYGKGICEQGSSRSYTFSVYIPSSFPDNATTIFAQWHGAPSRTLVATPEGEIKTLSIEEFLALYDRMIFKKNIAHDKVEKKDKDGKITYVAGKPNGWKVEQGGYPTLAFGFSKGYFYIKANSDRQWLTDKADRNNANPENSEVMKPYSSEYKTSTIAYKMPFAQFPKDCWITFDVAIDWTKYGKEANTILKPGKLDVMMTYTKNKKPQKAHIVNQQEILIGRNDDDGYYFKFGIYRVGNSTVPVTYNLSGYSETAR
1064SK adhesion to Cyr61-coated wells with agent ([1]; Cyr61 2 μg/ml, agent at the level stated in the block, Mg2+ 5.0 mM after EDTA): 0.13 A620
1064SK adhesion to fibronectin-coated wells with agent ([1]; fibronectin 1 μg/ml): 0.66 A620
1064SK adhesion to vitronectin-coated wells with agent ([1]; vitronectin 0.5 μg/ml): 0.63 A620
